Source: patent US20090318342A1, “Compounds” (IMPERIAL INNOVATIONS LIMITED, published 2009)

Key:
[1] = molecular target: T1, ADAMTS-4 (as used in Example 4; form not stated) (Homo sapiens (Human), UniProt O75173); test: GST-IGD-FLAG substrate assay, Ki(app)
T1 sequence: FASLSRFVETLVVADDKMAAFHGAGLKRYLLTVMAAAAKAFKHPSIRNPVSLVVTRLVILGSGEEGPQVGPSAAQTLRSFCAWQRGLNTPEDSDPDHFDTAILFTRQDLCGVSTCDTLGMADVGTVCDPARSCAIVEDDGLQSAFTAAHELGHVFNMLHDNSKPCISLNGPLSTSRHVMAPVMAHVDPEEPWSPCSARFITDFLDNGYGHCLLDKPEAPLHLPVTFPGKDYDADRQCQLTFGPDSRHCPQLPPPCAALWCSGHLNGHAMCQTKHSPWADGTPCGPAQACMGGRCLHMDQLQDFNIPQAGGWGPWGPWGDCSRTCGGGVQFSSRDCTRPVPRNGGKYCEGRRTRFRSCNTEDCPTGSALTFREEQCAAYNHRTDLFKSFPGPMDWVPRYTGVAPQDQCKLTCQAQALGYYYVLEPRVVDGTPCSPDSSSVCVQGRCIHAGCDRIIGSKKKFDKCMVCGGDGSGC
Protocol: (§1) Aggrecanase assays were carried out in 50 mM Tris HCl pH 7.5, 150 mM NaCl, 10 mM CaCl₂, 0.02% NaN₃, 0.05% Brij-35 at 37° C. When N-TIMP-3 was used, the inhibitor was preincubated with the enzyme for 1 hour. Reaction volumes were a total of 10 μl, consisting of 5 μl of GST-IGD-FLAG substrate (34 μM), and 5 μl of ADAMTS-4 or ADAMTS-5 (2 nM) with or without inhibitor. Enzyme amounts and incubation times were as indicated. Enzyme reactions were stopped at appropriate time points with the addition of 10 μl 2×SDS-PAGE samples loading buffer containing 20 mM EDTA. Reactions were then applied to a 10% SDS-PAGE analysis. Proteins were stained using Coomassie Brilliant Blue R-250. The stained gels were then scanned using a scanning densitometer (Biorad GS-710, Hemel Hempstead, UK) and the band intensity of the product (17 kDa) quantified using the 1D Phoretix quantification software (Nonlinear Dynamics, Newcastle upon Tyne, UK). Background subtraction was done using the rolling ball method, and band intensity expressed as pixel volumes.

[2] = molecular target: T2, ADAMTS-5 (Homo sapiens (Human), UniProt Q9UNA0); test: GST-IGD-FLAG substrate assay, Ki(app)
T2 sequence: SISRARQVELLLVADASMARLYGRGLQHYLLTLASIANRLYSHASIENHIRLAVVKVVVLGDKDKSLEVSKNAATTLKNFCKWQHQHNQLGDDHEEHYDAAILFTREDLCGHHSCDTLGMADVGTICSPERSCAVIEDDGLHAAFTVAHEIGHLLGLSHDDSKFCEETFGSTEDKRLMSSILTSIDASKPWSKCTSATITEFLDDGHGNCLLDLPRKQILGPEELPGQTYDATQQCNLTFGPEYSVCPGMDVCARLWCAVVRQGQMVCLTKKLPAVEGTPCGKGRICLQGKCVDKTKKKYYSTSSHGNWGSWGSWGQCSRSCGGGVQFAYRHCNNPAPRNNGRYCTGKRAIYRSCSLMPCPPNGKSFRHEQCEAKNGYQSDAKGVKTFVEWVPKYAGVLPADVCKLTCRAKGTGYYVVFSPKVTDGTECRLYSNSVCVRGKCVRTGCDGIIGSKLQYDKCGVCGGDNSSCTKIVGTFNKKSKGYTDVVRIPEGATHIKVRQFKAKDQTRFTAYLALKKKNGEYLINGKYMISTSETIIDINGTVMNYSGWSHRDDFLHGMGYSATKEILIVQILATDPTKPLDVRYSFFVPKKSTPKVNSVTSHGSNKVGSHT
Protocol: as §1

[3] = molecular target: full-length collagenase 1 (MMP-1) (Homo sapiens (Human), UniProt P03956); test: enzyme inhibition kinetics, Ki(app), as in Example 1
[4] = molecular target: gelatinase A (MMP-2) (Homo sapiens (Human), UniProt P08253); test: as above

Ki [1]: 67 nM
Ki [2]: 1.4 nM
Ki [3]: > 500 nM
Ki [4]: > 250 nM
B1: (-2A)N-TIMP-3 (other)
chain: AACTCSPSHPQDAFCNSDIVIRAKVVGKKLVKEGPFGTLVYTIKQMKMYRGFTKMPHVQYIHTEASESLCGLKLEVNKYQYLLTGRVYDGKMYTGLCNFVERWDQLTLSQRKGLNYRYHLGCN
